The record followed here is the supplement of paper PMC12042874.

± gives the uncertainty stated by the source.

The series in a line: amyloid nucleation score (Sup35N fusion, yeast selection) (log enrichment); library NNK3; higher = more nucleation; inactive = no reads after selection. The method in brief: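 The nucleation score, computed with DiMSum, is the log enrichment of output over input reads, centred on the mode score of non-aggregating sequences. Sequences with under 100 input reads were dropped. Reads were generated by Illumina sequencing of plasmid inserts from psi-negative yeast with Sup35N fused to peptides of 20 random codons, induced with 100 μM copper sulfate for 24 hours and grown 7 days at 30°C on medium lacking adenine and uracil.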
Turning to TDTLCDWYLPNRRWIKDNEW, the amyloid nucleation score result is “inactive”. For the substance SWLIR, the amyloid nucleation score result was “inactive”. Then CLGYRFVWGVPFVKFDRIIW, with “inactive”; and TKDRFFLKHTGRIMLGLRR, with “inactive”. To LNCQYTFHAKCSFLHPSLL belongs 0.928 ± 0.21; to YRLPHS, “inactive”; to YGRRMAHAGGVTGYGNLWCH, “inactive”. Turning to ERFRSLSGTVEEG, the amyloid nucleation score result was “inactive”. For the substance GANSGFRGIDGLLPALDKQE, the amyloid nucleation score entry is “inactive”. With REWRSNDGFFGSDSGVVGHT, the amyloid nucleation score result was “inactive”. To YLRHIVFNRQDYMSTRLCKH belongs “inactive”; to WMHRAYWLSGVCRVLQVTNL, “inactive”.

As for ESSLWYI, the amyloid nucleation score result is “inactive”.

Take DFEVSMGQR: the amyloid nucleation score was -0.015 ± 0.8. To STVKVSLYQNQYPNGFNS belongs 1.66 ± 0.089.

As for IFVRSLAQLGLIFDFHIFWE, the amyloid nucleation score result was “inactive”. Turning to QAVMKRAALVPTRTAKSLPS, the amyloid nucleation score result was “inactive”. Then FRLILM, with “inactive”; and FGMVFHISIACKWTGFSMR, with “inactive”. Regarding PIAFSIALPRVVCRQ, the amyloid nucleation score result was “inactive”. For the substance VSEMCIMSCTHIVGDCSWIR, the amyloid nucleation score result is “inactive”. Turning to VLLAIGWVGGIFCGIWAGSH, the amyloid nucleation score result was “inactive”.

For the substance TFWVFIAQKRCSGGKYGCMC, the amyloid nucleation score was -0.097 ± 0.69. Take YKLERTRPDSFMVCERINGH: the amyloid nucleation score result was “inactive”.

AFPCFIVY: the amyloid nucleation score entry is “inactive”.

With CYLNQSKYAARWNCGDNKME, the amyloid nucleation score result is “inactive”.

With GVRNGPKLILFYLRSWHEAY, the amyloid nucleation score result is “inactive”. On to HHYLTHNRLVIKHHYRKYYD, for which the amyloid nucleation score entry is “inactive”. To FLLSCK belongs “inactive”; to SHGHDSVTRNRQGPCGIRIY, “inactive”; to HLGYTVYSRTMRSSFVFRVL, “inactive”.

As for HQKKMRFALR, the amyloid nucleation score entry is “inactive”. Then MNWGYILLYVWDVSKNRYGF, with “inactive”; and VICKAPGRPGHLCCKCIAVH, with “inactive”.

As to SPKAVSCNTFPIGYRISFFL, the amyloid nucleation score entry is “inactive”. With FWMRFKHDW, the amyloid nucleation score was determined as 1.29 ± 0.16. To VVSIYVGSYMSIICKS belongs 1.95 ± 0.059; to FCLYTKLNVSIRGISDAYVY, “inactive”; to RILLLDTEFRLPNLPTS, 1.89 ± 0.072. In turn, TSLLINVVLMVNRPGCP yielded an amyloid nucleation score of 1.67 ± 0.061. Turning to GQFANPVK, the amyloid nucleation score result was “inactive”.

As to SYYSSDKMIVSVGLLKRDAK, the amyloid nucleation score entry was “inactive”. On to VTSESSSMGLTLSF, for which the amyloid nucleation score entry was “inactive”. Then GISRYFYSMCETWMNCHSGV, with 0.793 ± 0.28; and IILQNFPNRKYMCLGAKMAS, with “inactive”; and CSPVTCEISDWIV, with “inactive”. Then TRWGFVCNKTHVLGDMSIGM, with “inactive”; and GSCFVKEVSGGHMLGS, with “inactive”; and WLLDSRDGMRRKRAPRRVFA, with “inactive”. To FHVEVVAGCIVGNFGGVCVI belongs 0.5 ± 0.28. As for NLRFVTREWCKTYQLI, the amyloid nucleation score result is “inactive”. To RKPFENIDS belongs “inactive”; to ISSYFNMCDLCVDVRHTYRR, “inactive”. VFVSSKTISLSGSLMISPNL registered an amyloid nucleation score of 1.69 ± 0.086.

Take DDCTTVF: the amyloid nucleation score result is “inactive”. Turning to YEDQRSLRFCR, the amyloid nucleation score entry was “inactive”. To IGLRLVATLIDLRNADIGYG belongs “inactive”; to YWASARTRSGYFDVNKFSGG, “inactive”. To WYSRLRLEQMRKWCHRVL belongs “inactive”; to AWKTFFVIYSS, 0.406 ± 0.19; to GMVWFRFLKYAKC, -1.54 ± 2.4. Then NSQGQNYILTFYR, with 1.82 ± 0.088; and PLSLDFVDVARFSGRTGCWF, with “inactive”; and TLRGMGQHRQR, with “inactive”. Turning to NLSHDCPPGPAKARYYRNVK, the amyloid nucleation score result is “inactive”. To STYLGDVSLSFVRVWSVNGS belongs 1.29 ± 0.078; to FTYGMSSVFVGHF, “inactive”; to CRRVMVILMH, “inactive”. Then GNFESVSDRKFSISFHCWHS, with “inactive”. As to LNQSDRCKVCWYWLGHT, the amyloid nucleation score entry is “inactive”. In the case of KSFWVHMTGAFVCARYWCLP, the amyloid nucleation score was determined as 0.97 ± 0.17.

With HTIRL, the amyloid nucleation score result was “inactive”. Then CNIVSMFGCSGVMMACAAVV, with “inactive”; and LALCSTCFNLVYIICVGKKW, with “inactive”; and TPGNNSYAVLMLNELTYKPA, with 0.92 ± 0.13. Then IFSYLEEECDPRWRGPLKPL, with “inactive”; and LKCSLLYCRCRPGYQIAGT, with “inactive”; and KINDCYGYYDLYWNWSIVRF, with “inactive”. Then MWVSAYWYNTCRYRFLSV, with “inactive”; and GINHNGRVECNRFKMNY, with “inactive”. TLRMTWALSIRLSPLL: the amyloid nucleation score result was “inactive”. CLCFCCCSRVHYGTLFRNSA came in with an amyloid nucleation score of 2.98 ± 0.052. Then CLLSYSQPLGKGFGSTRDRC, with “inactive”; and SYSVSCTDGWSIVFMFSHIA, with “inactive”.

As to GIYGRTGHSYVF, the amyloid nucleation score result is “inactive”.

As to KFTFMQIKISPFDTCIQGWW, the amyloid nucleation score is -0.067 ± 0.4. Take PSTGLNSVKNRIDVSCGFR: the amyloid nucleation score entry was “inactive”. To LGDALAEVNQDHADSGYRVT belongs “inactive”. Consider NSRSFNTFKYNYGMLGFGVA, for which the amyloid nucleation score is -0.612 ± 0.84. Turning to VVICILQLHQYFFNYVH, the amyloid nucleation score worked out at 2.11 ± 0.05. To AWELEKTTYRRGRAIVVHTP belongs “inactive”; to VCGASGCKWAVTNSRHDGNG, “inactive”; to SLGLKIVVLESYGVSPVCCH, “inactive”. Then KMGTRGWLSDIAGNMVYVLC, with “inactive”.

In turn, FTCDTMKYSSRYSLFYVRVS displayed an amyloid nucleation score of 0.205 ± 0.77. Then YTWLAFRFSTSLHPRYSNIG, with “inactive”. As for HMSQYGRLCKMATLTFT, the amyloid nucleation score result was “inactive”. As to TLSKILLLSRYLYTRLKVRL, the amyloid nucleation score entry was “inactive”. Regarding VHRWGYQCSWVEQ, the amyloid nucleation score entry is “inactive”. Then DFHVLRYVLFRWMWIIWRKG, with “inactive”; and AIMLVSLC, with “inactive”.

As for WNLYRFLNW, the amyloid nucleation score result was “inactive”. For VFNIRHSSDPRLYLTYVMSS, the amyloid nucleation score came out at 1.19 ± 0.12.

As for LSSSGIMFCFFVDGLRSLV, the amyloid nucleation score entry is “inactive”.

CELLCFTGLSDYNTGSGVRR: the amyloid nucleation score result is “inactive”. To VYQTFYAIV belongs “inactive”. To SLDFSSGDVKNLKCCNVLMK belongs “inactive”. To IMSSVVYECFKVLRHSVMSG belongs “inactive”.

Regarding NYLVYSCDVRYSYMVSELAS, the amyloid nucleation score result is “inactive”. Take IGRVTSMGRMLHGNW: the amyloid nucleation score entry was “inactive”. Regarding MSKHF, the amyloid nucleation score result was “inactive”. To YSISKAFPMLSRLDMDMFGA belongs “inactive”; to VGLWYSDIISVFCLNLMRLV, “inactive”; to EKLIIELLCTT, “inactive”. Consider VMHMWCHQGRVWFSTSGFLG, for which the amyloid nucleation score was 0.35 ± 0.19. Then MRMVTPLSGRPRWYLHF, with “inactive”. As for TSYVLWLSRLYFVANPSDYS, the amyloid nucleation score entry was “inactive”. For the substance KLRVFV, the amyloid nucleation score entry was “inactive”.

Turning to RMYACSWGKSDLSCLMSFGK, the amyloid nucleation score entry was “inactive”. Then FSLTLCWHWSWVQCAGVPWG, with 2.05 ± 0.097. Substance AILCTIVCNASWAEEQSA registered an amyloid nucleation score of 1.09 ± 0.17. Then WKGMITFGI, with “inactive”; and EFFYINAMPVLYIDPYTSCF, with “inactive”; and RSTSVWRFLWMLHVFSKLLH, with “inactive”.

As for IMIGKVLFFGVATRMSVLRL, the amyloid nucleation score result was “inactive”. Then FQSDRVCFIGGWTSNRVGWM, with 0.699 ± 0.28. Consider DSDVWEPCFELEESKL, for which the amyloid nucleation score entry is “inactive”. Then LYSVFVRRSCLNG, with “inactive”; and YFRSLGLAIGCNR, with “inactive”. On to TYKVFL, for which the amyloid nucleation score entry is “inactive”. To LCTCTLCSLYV belongs “inactive”.
